Experimental findings from patent US20100233079A1 (AbbVie / Abbott, published 2010) are described below.

Positions count from the first letter of the chain named.

A word on the EC50: it is the concentration at which the effect is half-maximal. High values mean a need for much substance, low ones an effect from little substance. A word on the Kd: it is the free concentration of one partner at which half of the binding sites on the other are occupied at equilibrium, for simple one-to-one binding.

For experiment [1], the target named is T1, NRP1 (Neuropilin-1 Npn-1-His tag) (UniProt O14786-2 22-644, limits assumed).
T1 construct: Bought antigen with a His tag
As to the kind of experiment: direct bind ELISA, antigen on plate. As to the method: Enzyme Linked Immunosorbent Assays to screen for antibodies that bind a desired target antigen were performed as follows. […] Plates were washed four times with PBS containing 0.02% Tween 20. […] Plates were washed four times after blocking with PBS containing 0.02% Tween 20.
One hundred microliters of 10 ng/mL goat anti-human IgG-FC specific HRP conjugated antibody (Southern Biotech #2040-05, Birmingham, Ala.) was added to each well of the desired target antigen plate or anti-polyHistidine antibody/Histidine tagged desired target antigen plate. Alternatively, one hundred microliters of 10 ng/mL goat anti-human IgG-kappa light chain specific HRP conjugated antibody (Southern Biotech #2060-05 Birmingham, Ala.) was added to each well of the desired target antigen/FC fusion plate and incubated for 1 hour at room temperature. Plates were washed 4 times with PBS containing 0.02% Tween 20.
(In general: An ELISA detects its analyte on a solid surface through an enzyme-linked reagent.)

Experiment [2] concerns the target T2, rhIL-13 (recombinant human IL-13) (human, UniProt P35225 35-146, limits assumed). In words: SPR (Biacore 3000), mAb captured by anti-human IgG Fc, antigen in solution. From the text:
Unreacted moieties on the biosensor surface were blocked with ethanolamine. Modified carboxymethyl dextran surface in flowcell 2 and 4 was used as a reaction surface.
(Surface plasmon resonance follows binding to a sensor surface in real time, without labels.)

For experiment [3], the target named is T2, rhIL-13 (recombinant human IL-13). As to the kind of experiment: cell-based or functional assay.

T2 sequence (P35225 35-146 limits assumed): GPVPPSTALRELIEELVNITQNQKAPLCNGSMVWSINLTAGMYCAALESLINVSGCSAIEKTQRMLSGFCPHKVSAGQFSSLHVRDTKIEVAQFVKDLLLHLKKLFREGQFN

B1: AB016 (antibody, V domains shown)
VH: EVQLVESGGGLVQPGGSLRLSCAASGFSFSSEPISWVRQAPGKGLEWVSSITGKNGYTYYADSVKGRFTISADTSKNTAYLQMNSLRAEDTAVYYCARWGKKVYGMDVWGQGTLVTVSS
VL: DIQMTQSPSSLSASVGDRVTITCRASQSISSYLAWYQQKPGKAPKLLIYGASSRASGVPSRFSGSGSGTDFTLTISSLQPEDFATYYCQQYMSVPITFGQGTKVEIKR
notes: Parent antibody
For the molecule B1, in experiment [1], the concentration for a half-maximal effect (EC50) was determined as 0.28 nM.

B2: 13C5.5 (antibody, V domains shown)
VH: EVTLRESGPGLVKPTQTLTLTCTLYGFSLSTSDMGVDWIRQPPGKGLEWLAHIWWDDVKRYNPALKSRLTISKDTSKNQVVLKLTSVDPVDTATYYCARTVSSGYIYYAMDYWGQGTLVTVSS
VL: DIQMTQSPSSLSASVGDRVTISCRASQDIRNYLNWYQQKPGKAPKLLIFYTSKLHSGVPSRFSGSGSGTDYTLTISSLQPEDIATYYCQQGNTLPLTFGGGTKVEIKR
notes: Monoclonal antibody; also called AB231
On to B2, for which the Kd in experiment [2] was found to be 0.15 nM. In addition, in experiment [3], the “IC50 (nM), A549 bioassay (IL-13 induced TARC)” value was 0.2 nM.

B3: 13C5.5L3F (antibody, V domains shown)
VH: B2 VH
VL: B2 VL with N92L, L94P
notes: Monoclonal antibody; also called AB232
Regarding B3, the dissociation constant (Kd) in experiment [2] was 0.24 nM. For the same molecule, the “IC50 (nM), A549 bioassay (IL-13 induced TARC)” value in experiment [3] worked out at 0.31 nM.
